Measurements as given in article PMC10704370.

Biological target: YmgB (purified, biotinylated) (Escherichia coli) (UniProt P75993)
Assay: BLI; biotinylated YmgB or YmgB^R74G immobilised on streptavidin biosensors, SpoT^TGS-Helical 2-50 μM as analyte; Blitz, 25 °C; 50 mM Tris-HCl pH 8.0, 500 mM NaCl, 500 mM KCl, 2 mM β-mercaptoethanol, 2% glycerol, BSA 1 mg/ml; KD from steady-state responses, one site model

Chain of UniProt P75993 (P75993 whole entry): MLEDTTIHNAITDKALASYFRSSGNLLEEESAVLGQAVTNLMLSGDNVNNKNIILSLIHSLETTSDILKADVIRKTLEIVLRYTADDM

- Kd: 8.73 µM
Substance: SpoT^TGS-Helical (purified) (domain or fragment)
